The values below come from patent publication US20210147572A1, “ANTIBODIES AND METHODS OF USE THEREOF” (AbeXXa Biologics, Inc., priority 2017, published 2021).

The target in test [1] is T1, HLA-E molecules expressed in PDX lung tumor tissue (Homo sapiens, UniProt P13747).
T1 construct: tissue Crown Biosciences PDX model LU5139; host or cells: patient-derived xenograft lung tumour tissue
Nature of the test: LC/MS/MS validation of peptides eluted from HLA-E of PDX lung tumor tissue. As to conditions: PDX model LU5139, HLA-E affinity column 4D12. The procedure: FIG. 6 exemplifies a validation strategy used for cancer specific HLA-E-peptide targets. 1) Snap-frozen tumor tissue isolated from patient-derived xenograft (PDX) models, patient biopsies or freshly isolated hematological cancer cells are stored frozen in liquid nitrogen. 2) Sample of material is isolated and resuspended in 5 to 10 ml of lysis buffer and homogenized for 10 seconds on ice. After lhr incubation on ice, the sample is centrifuged for 20 min at 40,000 g. 3) An affinity column is prepared using antibody 4D12 or another antibody to HLA-E. The purified anti-HLA-E antibodies are coupled to a CN-Br-activated sepharose beads. The clarified supernatant is then applied to the affinity column. The column is washed with PBS, followed by a second wash with water and the sample eluted with 0.1M glycine pH 3.0. 4) Collected sample is immediately neutralized with addition of NH4HCO3. […]
PDX lung tumor tissue was purchased from Crown Biosciences and used for extraction of HLA-E-peptide complexes. […] An aliquot of sample supernatant was removed and protein concentration was determined by BCA assay. […]
Peptide mixture samples underwent solid-phase extraction cleanup with an Oasis HLB elution plate (Waters) and the resulting samples were analyzed by LC/MS/MS, using an Orbitrap Fusion Lumos mass spectrometer (Thermo Electron) coupled to an UltiMate™ 3000 RSLC-Nano liquid chromatography system (Dionex). […]

For test [2], the target named is HLA-E*0103 (Homo sapiens, UniProt P13747). Nature of the test: HLA-E*0103 peptide binding and refolding into monomer. The format is biochemical.
For test [3], the target named is T2, HLA-E*0103 extracellular domain with beta-2-microglobulin (recombinant, before peptide loading) (human). Nature of the test: peptide binding and refold into monomer complex.
The target of test [4] is T2, HLA-E*0103 extracellular domain with …. The experiment in a line: in vitro refold, Superdex 75 size exclusion.

Take GLADKVYFL: in test [1], the “Peptide detected in lung PDX tissue by LC/MS/MS” value is “isolated from HLA-E molecules expressed in PDX lung tumor tissue”. Turning to YLLPAIVHI [RNA Helicase p68 peptide], in test [2], the “HLA-E*0103 peptide binding, refold into stable monomer complexes” value is on record as “successfully refold HLA-E*0103/peptide into stable monomer complexes”. Take YLLPAIVHI [peptide YLLPAIVHI (RNA Helicase p68)]: in test [3], the binding result is reported as “binds”. For GLADKVYFL [peptide GLADKVYFL (CAD protein)], the binding result in test [4] is listed as “binds”.
